Data set [1] concerns the target T1, Brachyury full-length G177D (Homo sapiens, UniProt O15178 1-435, G177D).
T1 sequence: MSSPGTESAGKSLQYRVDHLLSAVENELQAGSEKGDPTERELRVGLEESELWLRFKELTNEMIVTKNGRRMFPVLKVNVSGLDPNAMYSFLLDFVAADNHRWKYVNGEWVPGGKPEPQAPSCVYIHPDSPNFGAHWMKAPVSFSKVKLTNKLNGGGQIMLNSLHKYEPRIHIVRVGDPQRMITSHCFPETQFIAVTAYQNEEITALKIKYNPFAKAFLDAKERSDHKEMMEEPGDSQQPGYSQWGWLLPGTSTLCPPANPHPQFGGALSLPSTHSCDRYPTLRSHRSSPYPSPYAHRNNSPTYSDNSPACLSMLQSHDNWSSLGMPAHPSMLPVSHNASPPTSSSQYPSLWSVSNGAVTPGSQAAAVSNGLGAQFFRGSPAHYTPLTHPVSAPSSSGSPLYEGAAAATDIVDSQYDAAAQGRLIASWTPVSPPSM
Put plainly: EMSA; apparent; Hill slope 1.8; DNA 1-5 nM; EMSA: 25 mM HEPES pH 7.4, 75 mM NaCl, 10% glycerol, 0.1% Tween 20, 1 mM TCEP, on ice 10 min; SPR: 10 mM HEPES pH 7.5, 150 mM NaCl, 1 mM DTT, 1% DMSO, temperature not stated. The conditions noted are these: protein: recombinant; tags: C-terminal AVI tag, biotinylated; N-terminal 9His-GST removed with TEV (construct stated for SPR/DSF); chain copies: 2; label: 32P 5' end (EMSA); none stated (SPR); blunt. (A gel shift assay detects complexes by their altered migration in electrophoresis.)

Data set [2] concerns the target T2, Brachyury full-length WT (Homo sapiens, UniProt O15178 1-435).
T2 sequence: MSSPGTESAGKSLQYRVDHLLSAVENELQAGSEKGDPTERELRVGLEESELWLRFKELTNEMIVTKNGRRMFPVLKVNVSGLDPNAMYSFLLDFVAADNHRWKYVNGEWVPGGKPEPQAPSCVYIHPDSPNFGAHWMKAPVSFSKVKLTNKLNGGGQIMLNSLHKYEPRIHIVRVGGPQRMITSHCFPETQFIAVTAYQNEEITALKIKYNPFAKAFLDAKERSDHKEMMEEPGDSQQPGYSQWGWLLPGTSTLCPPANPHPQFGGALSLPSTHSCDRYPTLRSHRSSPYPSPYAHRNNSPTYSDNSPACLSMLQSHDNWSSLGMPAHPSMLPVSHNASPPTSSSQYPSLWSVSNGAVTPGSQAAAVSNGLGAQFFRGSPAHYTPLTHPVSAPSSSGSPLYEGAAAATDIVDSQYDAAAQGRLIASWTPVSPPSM
Put plainly: EMSA; apparent; Hill slope 2.3; DNA 1-5 nM; EMSA: 25 mM HEPES pH 7.4, 75 mM NaCl, 10% glycerol, 0.1% Tween 20, 1 mM TCEP, on ice 10 min; SPR: 10 mM HEPES pH 7.5, 150 mM NaCl, 1 mM DTT, 1% DMSO, temperature not stated. To be noted: protein: recombinant; tags: C-terminal AVI tag, biotinylated; N-terminal 9His-GST removed with TEV (construct stated for SPR/DSF); chain copies: 2; label: 32P 5' end (EMSA); none stated (SPR); blunt.

Data set [3] concerns the target T2, Brachyury full-length WT. Put plainly: SPR; protein immobilized; steady-state fit; EMSA: 25 mM HEPES pH 7.4, 75 mM NaCl, 10% glycerol, 0.1% Tween 20, 1 mM TCEP, on ice 10 min; SPR: 10 mM HEPES pH 7.5, 150 mM NaCl, 1 mM DTT, 1% DMSO, temperature not stated. The conditions noted are these: protein: recombinant; tags: C-terminal AVI tag, biotinylated; N-terminal 9His-GST removed with TEV (construct stated for SPR/DSF); chain copies: 2; label: 32P 5' end (EMSA); none stated (SPR); blunt. Background: In SPR one partner is held on a chip, and binding of the other changes the refractive index at the surface.

Data set [4] has as its target T1, Brachyury full-length G177D. Described as above. The conditions noted are these: protein: recombinant; tags: C-terminal AVI tag, biotinylated; N-terminal 9His-GST removed with TEV (construct stated for SPR/DSF); chain copies: 2; label: 32P 5' end (EMSA); none stated (SPR); blunt.
In data set [5] the target is T3, Brachyury DNA binding domain G177D (Homo sapiens, UniProt O15178 41-224, G177D).
T3 sequence: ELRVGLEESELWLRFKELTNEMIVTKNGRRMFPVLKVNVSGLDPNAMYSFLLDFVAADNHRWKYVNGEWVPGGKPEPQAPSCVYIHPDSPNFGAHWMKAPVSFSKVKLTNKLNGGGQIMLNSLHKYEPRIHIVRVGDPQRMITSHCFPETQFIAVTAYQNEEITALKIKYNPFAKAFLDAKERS
The data set can be described thus: X-ray crystallography; 2.15 A; two protomers per duplex; EMSA: 25 mM HEPES pH 7.4, 75 mM NaCl, 10% glycerol, 0.1% Tween 20, 1 mM TCEP, on ice 10 min; SPR: 10 mM HEPES pH 7.5, 150 mM NaCl, 1 mM DTT, 1% DMSO, temperature not stated. The conditions noted are these: protein: recombinant; chain copies: 2; blunt, self-complementary, 2 copies of strand.

Data set [6] addresses T4, Brachyury DNA binding domain WT (Homo sapiens, UniProt O15178 41-224).
T4 sequence: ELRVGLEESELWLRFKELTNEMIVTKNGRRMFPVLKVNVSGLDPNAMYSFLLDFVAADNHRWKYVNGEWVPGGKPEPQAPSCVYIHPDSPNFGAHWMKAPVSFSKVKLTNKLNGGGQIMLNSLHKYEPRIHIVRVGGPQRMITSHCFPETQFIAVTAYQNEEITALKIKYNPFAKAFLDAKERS
The data set can be described thus: X-ray crystallography; 2.25 A; two protomers per duplex; EMSA: 25 mM HEPES pH 7.4, 75 mM NaCl, 10% glycerol, 0.1% Tween 20, 1 mM TCEP, on ice 10 min; SPR: 10 mM HEPES pH 7.5, 150 mM NaCl, 1 mM DTT, 1% DMSO, temperature not stated. The conditions noted are these: protein: recombinant; chain copies: 2; blunt, self-complementary, 2 copies of strand.

B1: TA50 palindromic 50 bp (TA50-F/TA50-R) (dsDNA)
DNA 1: CATGCATGCAGGGAATTTCACACCTAGGTGTGAAATTCCCATTCGTGCGA
DNA 2: TCGCACGAATGGGAATTTCACACCTAGGTGTGAAATTCCCTGCATGCATG
With B1, the Kd was 1.2 nM in data set [1], 1.4 nM with Brachyury full-length WT [2], 14.8 ± 2.4 nM with Brachyury full-length WT [3] and 17.9 nM in data set [4].

B2: 26 bp palindromic T-box DNA (dsDNA)
DNA 1: GAATTTCACACCTAGGTGTGAAATTC
DNA 2: GAATTTCACACCTAGGTGTGAAATTC
Turning to B2, the binding result in data set [5] is given as “binds”.

B3: 24 bp palindromic T-box DNA (dsDNA)
DNA 1: AATTTCACACCTAGGTGTGAAATT
DNA 2: AATTTCACACCTAGGTGTGAAATT
As to B3, the binding result in data set [6] is reported as “binds”.

The values above are taken from PMC11828899, “Structural insights into human brachyury DNA recognition and discovery of progressible binders for cancer therapy”.
